Reference: patent US5856135, “Reshaped human antibody to human interleukin-6” (Chugai Seiyaku Kabushiki Kaisha, dated 1999)
Numbering of substitutions follows the chain as printed.

B1: chimeric SK2 antibody (antibody, V domains shown)
VH: QVTLKESGPGILQPSQTLSLTCSFSGFSLNTSGMTVGWIRQPSGKGLEWLAHIWWNDDKYYNPALKGRLTISKDTSNNQVFLKIASVVTADTATYYCARMEDYDEAMDYWGQGTSVTVSS
VL: DIQMTQSPASLSVSVGETVTITCRASENIYSNLAWYQQKQGKSPQLLVYAATYLADGVPSRFSGSGSGTQYSLKINSLQSEDFGSYYCQHFWGTPPFGSGTKLEIK
B2: antibody comprising reshaped L chain version "b" and chimeric H chain (antibody, V domains shown)
VH: B1 VH
VL: DIQMTQSPSSLSASVGDRVTITCRASENIYSNLAWYQQKPGKAPKLLIYAATYLADGVPSRFSGSGSGTDYTFTISSLQPEDIATYYCQHFWGTPPFGQGTKVEIK
B3: reshaped human SK2 antibody, L chain version "a" and H chain version "a" (antibody, V domains shown)
VH: QVTLRESGPALVRPTQTLTLTCTFSGFSLSTSGMTVGWIRQPPGEALEWLAHIWWNDDKYYNPALKGRLAVSKDTSKNQVVLSMNTVGPGDTATYYCARMEDYDEAMDYWGQGILVTVSS
VL: B2 VL with Y71F
B4: reshaped human SK2 antibody, L chain version "a" and H chain version "b" (antibody, V domains shown)
VH: B3 VH with S30N
VL: B2 VL with Y71F
B5: reshaped human SK2 antibody, L chain version "b" and H chain version "a" (antibody, V domains shown)
VH: B3 VH
VL: B2 VL
B6: reshaped human SK2 antibody, L chain version "b" and H chain version "b" (antibody, V domains shown)
VH: B3 VH with S30N
VL: B2 VL
B7: antibody comprising reshaped L chain version "a" and chimeric H chain (antibody, V domains shown)
VH: B1 VH
VL: B2 VL with Y71F

Key:
recombinant human IL-6 [1] = biological target: T1, recombinant human IL-6 (human, UniProt P05231); experiment: ELISA, told in the description of the chimeric antibody
Description: (§1) An ELISA plate for antigen-binding assay was prepared as follows. A 96-well plate was coated with mouse monoclonal antibody MH166 recognizing a different epitope of human IL-6 from that recognized by SK2 (Matsuda, T. et al., Eur. J. Immunol. 18, 951–956, 1988), and after blocking, recombinant human IL-6 was added thereto. A sample of the chimeric SK2 antibody was sequentially diluted, added to each well, and then an alkaline phosphatase-conjugated goat anti-human IgG antibody (Sigma) was added thereto. After incubation and washing, substrate was added, and absorbance at 405 nm was measured.

biotinylated IL-6 [2] = biological target: T2, biotinylated IL-6 (human, UniProt P05231, biotinylated (site not stated)); experiment: binding-inhibition ELISA, IL-6 to IL-6R (FIG. 10), reference
Description: (§2) For binding-inhibition assay, an ELISA plate was prepared as follows. A 96-well plate was coated with mouse monoclonal antibody, MT-18 (Hirata, Y. et al., J. Immunol., 143, 2900–2907, 1989), specific to human IL-6 receptor (IL-6R), and, after blocking, soluble recombinant human IL-6R (SR344) (Yasukawa, K. et al., J. Biochem. 108, 673–676, 1990) was added thereto. A sample of this chimeric SK2 antibody was sequentially diluted, and added with biotinylated IL-6 to each well, and after adding an alkaline phosphatase-conjugated streptavidin thereto, absorbance at 405 nm was measured.

recombinant human IL-6 [3] = biological target: T1, recombinant human IL-6; experiment: antigen-binding ELISA (FIG. 8)
Description: as §1

biotinylated IL-6 [4] = biological target: T2, biotinylated IL-6; experiment: binding-inhibition ELISA, IL-6 to IL-6R (FIG. 10)
Description: as §2

recombinant human IL-6 [5] = biological target: T1, recombinant human IL-6; experiment: antigen-binding ELISA (FIG. 9)
Description: as §1

Row | Binder | binding result (biotinylated IL-6 [4]) | binding result (recombinant human IL-6 [5]) | other results
1 | B1 | – | – | binding result (recombinant human IL-6 [1]): binds; binding result (biotinylated IL-6 [2]): binds
2 | B2 | – | – | binding result (recombinant human IL-6 [3]): binds
3 | B3 | binds | binds | –
4 | B4 | binds | binds | –
5 | B5 | binds | binds | –
6 | B6 | – | binds | –
7 | B7 | – | – | binding result (recombinant human IL-6 [3]): binds
